From patent publication US20040086528A1 (PROGENICS PHARMACEUTICALS, published 2004)
Where a chain is given by its changes, count along the chain named.

Tests used:
Experiment in all cases: cell-based or functional assay
[1] = target: T1, CCR5 D2A, HA-tagged (human, UniProt P51681 1-352)
T1 sequence (looked up): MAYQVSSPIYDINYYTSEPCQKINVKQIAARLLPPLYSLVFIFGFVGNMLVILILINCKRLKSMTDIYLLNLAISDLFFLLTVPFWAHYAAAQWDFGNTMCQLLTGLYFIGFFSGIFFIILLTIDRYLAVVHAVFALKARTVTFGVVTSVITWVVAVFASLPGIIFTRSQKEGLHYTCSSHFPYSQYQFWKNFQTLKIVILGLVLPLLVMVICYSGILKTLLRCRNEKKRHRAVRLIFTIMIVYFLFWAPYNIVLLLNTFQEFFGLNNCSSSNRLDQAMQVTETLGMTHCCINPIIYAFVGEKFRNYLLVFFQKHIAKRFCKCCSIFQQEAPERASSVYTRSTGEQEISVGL

[2] = target: T2, CCR5 K171A/E172A, HA-tagged (human, UniProt P51681 1-352)
T2 sequence: T1 sequence (looked up) with A2D, K171A, E172A

[3] = target: T3, CCR5 K26A, HA-tagged (human, UniProt P51681 1-352)
T3 sequence: T1 sequence (looked up) with A2D, K26A

[4] = target: T4, CCR5 H181A, HA-tagged (human, UniProt P51681 1-352)
T4 sequence: T1 sequence (looked up) with A2D, H181A

[5] = target: T5, CCR5 K191A/N192A, HA-tagged (human, UniProt P51681 1-352)
T5 sequence: T1 sequence (looked up) with A2D, K191A, N192A

[6] = target: T6, CCR5 E262A, HA-tagged (human, UniProt P51681 1-352)
T6 sequence: T1 sequence (looked up) with A2D, E262A

[7] = target: T7, CCR5 K22A, HA-tagged (human, UniProt P51681 1-352)
T7 sequence: T1 sequence (looked up) with A2D, K22A

B1: macrophage inflammatory protein (MIP)-1β, recombinant human (ligand, UniProt P13236 24-92, looked up)
chain: APMGSDPPTACCFSYTARKLPRNFVVDYYETSSLCSQPAVVFQTKRSKQVCADPSESWVQEYVYDLELN
B1 was tested, and the “relative % inhibition of NLluc/JR-FL entry into U87MG-CD4 cells by 2 µg/ml chemokine (wild-type = 100)” value (from here on “relative % inhibition”) [1] was 97%, the “relative % inhibition” value [2] was 97% and the “relative % inhibition” value [3] was 97%. The “relative % inhibition” value [4] was 53%, the “relative % inhibition” value [5] was 15% and the “relative % inhibition” value [6] was 102%. The “relative % inhibition” value [7] was 12%.

B2: RANTES, recombinant human (ligand)
chain: SPYSSDTTPCCFAYIARPLPRAHIKEYFYTSGKCSNPAVVFVTRKNRQVCANPEKKWVREYINSLEMS
For B2, the “relative % inhibition” value [1] was 85%, the “relative % inhibition” value [2] was 107% and the “relative % inhibition” value [3] was 100%. For the same binder, the “relative % inhibition” value [4] was 39%, the “relative % inhibition” value [5] was 18% and the “relative % inhibition” value [6] was 100%. The “relative % inhibition” value [7] was -11%.
